For orientation: Km means the concentration of substrate that gives half-maximal velocity.

Non-standard residues stand in square brackets, D forms with d. No end group written: not given here. *: point of attachment. EDDnp = O=[N+]([O-])c1ccc(NCCN*)c([N+](=O)[O-])c1; 2Abz = Nc1ccccc1C(=O)O

For the first test, the target named is T1, Recombinant KLK2 (Homo sapiens, UniProt P20151).
T1 construct: made in house; host or cells: baculovirus-insect cell line system
T1 sequence (P20151 25-261): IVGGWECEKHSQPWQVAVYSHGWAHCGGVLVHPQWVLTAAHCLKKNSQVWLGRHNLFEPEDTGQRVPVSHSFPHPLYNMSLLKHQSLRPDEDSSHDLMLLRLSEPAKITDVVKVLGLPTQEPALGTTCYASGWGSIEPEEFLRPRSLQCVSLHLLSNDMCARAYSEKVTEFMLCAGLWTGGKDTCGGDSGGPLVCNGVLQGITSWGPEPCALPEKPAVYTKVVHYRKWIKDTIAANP
As to the kind of experiment: Hydrolysis of FRET peptides by recombinant KLK2 (kinetic parameters). The test is classed as biochemical. To be noted: 20 mM Tris–HCl, pH 8.0, 1 M sodium citrate. An excerpt: Obtained from a baculovirus-insect cell line system, purified, and activated as previously reported,[14] MUGB (4-methylumbelliferyl p-guanidino benzoate hydrochloride) was used for the spectrofluorimetric determination of molar concentrations of active KLK2.[15] KLK3 was obtained and assayed as previously reported.[3]
All of the FRET peptides were obtained by solid-phase peptide synthesis. The purity of FRET peptides to 95% or higher was obtained by semipreparative HPLC on a C18 reversed-phase column and used as protease substrates, as previously reported.[5] Details about the purification and quality of the FRET peptides are provided in the Supporting Information. The enzymatic kinetic measurements were all performed with FRET peptides as previously described.[5]
Five series of FRET peptides derived from Abz-KLRSSK-Q-EDDnp were assayed with KLK2 in 20 mM Tris–HCl, pH 8.0, and 1 M sodium citrate. […] The specificity of subsites S3, S2, S1’, and S2’ was explored by the FRET peptide series Abz-XLRSSKQ-EDDnp (for S3), Abz-KXRSSKQ-EDDnp (for S2), Abz-KLRXSKQ-EDDnp (for S1’), and Abz-KLRSXKQ-EDDnp (for S2’). All of them were hydrolyzed only at R–S or R–X peptide bonds, and the kinetic parameters for their hydrolysis by KLK2 are listed in Table 1.
“Abz-KLRSSKQ-EDDnp [parent FRET peptide, cleaved at the R–S peptide bond by KLK2]”: the kcat/Km worked out at 1738 mM^–1 s^–1.

The same test, now with this note: pH 8.0, 20 mM Tris–HCl, 1 M sodium citrate, 37 °C, KLK2 1.6 nM; three enzymatic reactions, standard errors 5% or less.
In the case of “Abz-KLRSSKQ-EDDnp [parent FRET peptide, cleaved at the R–S peptide bond by KLK2]”, the Km came to 6.5 µM, the kcat is listed as 11.3 s^–1 and the kcat/Km was 1738 s^–1 mM^–1.
For “Abz-KLRSXKQ-EDDnp, X = A: FRET peptide, S2’ series, X = A ([2Abz]KLRSAKQ-EDDnp)” the same measures were 3.8 µM, 12.2 s^–1 and 3211 s^–1 mM^–1.
Regarding “Abz-KLRSXKQ-EDDnp, X = E: FRET peptide, S2’ series, X = E ([2Abz]KLRSEKQ-EDDnp)”, the Km came out at 8 µM, the kcat came to 7.1 s^–1 and the kcat/Km is recorded as 888 s^–1 mM^–1.
Regarding “Abz-KLRSXKQ-EDDnp, X = F: FRET peptide, S2’ series, X = F ([2Abz]KLRSFKQ-EDDnp)”, the Km amounted to 2.4 µM, the kcat is 12.4 s^–1 and the kcat/Km was determined as 5167 s^–1 mM^–1.
With “Abz-KLRSXKQ-EDDnp, X = G: FRET peptide, S2’ series, X = G ([2Abz]KLRSGKQ-EDDnp)”, the Km stood at 4.5 µM, the kcat was found to be 3.5 s^–1 and the kcat/Km is reported as 778 s^–1 mM^–1.
Consider “Abz-KLRSXKQ-EDDnp, X = H: FRET peptide, S2’ series, X = H (N-terminal Abz, C-terminal EDDnp; X = H)”, for which the Km was found to be 5.9 µM and the kcat came out at 4.4 s^–1.
For the substance “Abz-KLRSXKQ-EDDnp, X = I: FRET peptide, S2’ series, X = I ([2Abz]KLRSIKQ-EDDnp)”, the Km turned out to be 2.8 µM, the kcat is listed as 4.4 s^–1 and the kcat/Km was found to be 1571 s^–1 mM^–1.
For “Abz-KLRSXKQ-EDDnp, X = L: FRET peptide, S2’ series, X = L ([2Abz]KLRSLKQ-EDDnp)” the same measures were 2.8 µM, 8.5 s^–1 and 3036 s^–1 mM^–1.
For “Abz-KLRSXKQ-EDDnp, X = N: FRET peptide, S2’ series, X = N ([2Abz]KLRSNKQ-EDDnp)”, in that order: 8.8 µM, 4.9 s^–1 and 557 s^–1 mM^–1.
For “Abz-KLRSXKQ-EDDnp, X = Q: FRET peptide, S2’ series, X = Q ([2Abz]KLRSQKQ-EDDnp)”, in that order: 5.2 µM, 6.5 s^–1 and 1250 s^–1 mM^–1.
Consider “Abz-KLRSXKQ-EDDnp, X = R: FRET peptide, S2’ series, X = R ([2Abz]KLRSRKQ-EDDnp)”, for which the Km came out at 3.6 µM, the kcat was determined as 3.2 s^–1 and the kcat/Km was determined as 888 s^–1 mM^–1.
For “Abz-KLRSXKQ-EDDnp, X = V: FRET peptide, S2’ series, X = V ([2Abz]KLRSVKQ-EDDnp)”, in that order: 4.2 µM, 15.3 s^–1 and 3643 s^–1 mM^–1.
As to “Abz-KLRXSKQ-EDDnp, X = E: FRET peptide, S1’ series, X = E ([2Abz]KLRESKQ-EDDnp)”, the Michaelis constant (Km) was 6.6 µM, the kcat is recorded as 10.3 s^–1 and the kcat/Km was 1561 s^–1 mM^–1.
“Abz-KLRXSKQ-EDDnp, X = F: FRET peptide, S1’ series, X = F ([2Abz]KLRFSKQ-EDDnp)”: the Km was determined as 1.2 µM, the kcat came to 3.5 s^–1 and the kcat/Km was 2917 s^–1 mM^–1.
As for “Abz-KLRXSKQ-EDDnp, X = G: FRET peptide, S1’ series, X = G ([2Abz]KLRGSKQ-EDDnp)”, the Km amounted to 7.3 µM and the kcat was determined as 19.9 s^–1.
In the case of “Abz-KLRXSKQ-EDDnp, X = H: FRET peptide, S1’ series, X = H (N-terminal Abz, C-terminal EDDnp; X = H)”, the Km came out at 4.3 µM, the kcat is on record as 8.0 s^–1 and the kcat/Km is 1860 s^–1 mM^–1.
For “Abz-KLRXSKQ-EDDnp, X = I: FRET peptide, S1’ series, X = I ([2Abz]KLRISKQ-EDDnp)” the same measures were 1.8 µM, 7.2 s^–1 and 4000 s^–1 mM^–1.
With “Abz-KLRXSKQ-EDDnp, X = L: FRET peptide, S1’ series, X = L ([2Abz]KLRLSKQ-EDDnp)”, the Km was determined as 3.3 µM, the kcat amounted to 6.7 s^–1 and the kcat/Km is on record as 2030 s^–1 mM^–1.
On to “Abz-KLRXSKQ-EDDnp, X = N: FRET peptide, S1’ series, X = N ([2Abz]KLRNSKQ-EDDnp)”, for which the Km turned out to be 8.6 µM, the kcat is recorded as 14.8 s^–1 and the kcat/Km came out at 1733 s^–1 mM^–1.
For “Abz-KLRXSKQ-EDDnp, X = Q: FRET peptide, S1’ series, X = Q ([2Abz]KLRQSKQ-EDDnp)”, in that order: 6.1 µM, 8.5 s^–1 and 1393 s^–1 mM^–1.
Regarding “Abz-KLRXSKQ-EDDnp, X = R: FRET peptide, S1’ series, X = R ([2Abz]KLRRSKQ-EDDnp)”, the Michaelis constant (Km) came out at 5.4 µM, the kcat turned out to be 8.2 s^–1 and the kcat/Km amounted to 1519 s^–1 mM^–1.
For the substance “Abz-KLRXSKQ-EDDnp, X = V: FRET peptide, S1’ series, X = V ([2Abz]KLRVSKQ-EDDnp)”, the Km is 2.2 µM, the kcat turned out to be 8.1 s^–1 and the kcat/Km came out at 3682 s^–1 mM^–1.
For “Abz-KXRSSKQ-EDDnp, X = A: FRET peptide, S2 series, X = A [Abz-KXRSSKQ-EDDnp, X = A] ([2Abz]KARSSKQ-EDDnp)”, in that order: 4.8 µM, 2.2 s^–1 and 458 s^–1 mM^–1.
“Abz-KXRSSKQ-EDDnp, X = E: FRET peptide, S2 series, X = E [Abz-KXRSSKQ-EDDnp, X = E] ([2Abz]KERSSKQ-EDDnp)”: the Km was determined as 9.1 µM, the kcat was 1.0 s^–1 and the kcat/Km is 110 s^–1 mM^–1.
For “Abz-KXRSSKQ-EDDnp, X = F: FRET peptide, S2 series, X = F ([2Abz]KFRSSKQ-EDDnp)”, the Km was 1.6 µM, the kcat was determined as 4.1 s^–1 and the kcat/Km worked out at 2563 s^–1 mM^–1.
With “Abz-KXRSSKQ-EDDnp, X = G: FRET peptide, S2 series, X = G ([2Abz]KGRSSKQ-EDDnp)”, the Km worked out at 12.4 µM, the kcat came out at 1.0 s^–1 and the kcat/Km stood at 81 s^–1 mM^–1.
For “Abz-KXRSSKQ-EDDnp, X = H: FRET peptide, S2 series, X = H (N-terminal Abz, C-terminal EDDnp; X = H)” the same measures were 9.6 µM, 4.7 s^–1 and 490 s^–1 mM^–1.
With “Abz-KXRSSKQ-EDDnp, X = I: FRET peptide, S2 series, X = I [Abz-KXRSSKQ-EDDnp, X = I] (Abz-KIRSSKQ-EDDnp)”, the Km turned out to be 4.5 µM, the kcat was found to be 4.7 s^–1 and the kcat/Km was found to be 1044 s^–1 mM^–1.
For “Abz-KXRSSKQ-EDDnp, X = K: FRET peptide, S2 series, X = K (Abz-KKRSSKQ-EDDnp)” the same measures were 7.2 µM, 3.0 s^–1 and 417 s^–1 mM^–1.
For “Abz-KXRSSKQ-EDDnp, X = N: FRET peptide, S2 series, X = N (Abz-KNRSSKQ-EDDnp)”, the Km was found to be 10.1 µM, the kcat is 3.3 s^–1 and the kcat/Km is given as 327 s^–1 mM^–1.
For “Abz-KXRSSKQ-EDDnp, X = Q: FRET peptide, S2 series, X = Q [Abz-KXRSSKQ-EDDnp, X = Q] (Abz-KQRSSKQ-EDDnp)”, in that order: 8.3 µM, 6.4 s^–1 and 771 s^–1 mM^–1.
For “Abz-KXRSSKQ-EDDnp, X = R: FRET peptide, S2 series, X = R (Abz-KRRSSKQ-EDDnp)”, the Km worked out at 5.2 µM, the kcat is 8.7 s^–1 and the kcat/Km turned out to be 1673 s^–1 mM^–1.
Turning to “Abz-KXRSSKQ-EDDnp, X = S: FRET peptide, S2 series, X = S (Abz-KSRSSKQ-EDDnp)”, the Km worked out at 9.1 µM, the kcat is 1.1 s^–1 and the kcat/Km is 121 s^–1 mM^–1.
On to “Abz-KXRSSKQ-EDDnp, X = T: FRET peptide, S2 series, X = T (Abz-KTRSSKQ-EDDnp)”, for which the Km is 10.5 µM, the kcat came to 3.6 s^–1 and the kcat/Km was 343 s^–1 mM^–1.
For the substance “Abz-KXRSSKQ-EDDnp, X = V: FRET peptide, S2 series, X = V (Abz-KVRSSKQ-EDDnp)”, the Km was 8.5 µM, the kcat is 9.9 s^–1 and the kcat/Km is listed as 1165 s^–1 mM^–1.

(Values after paper PMC11339918, “Extracellular Domain of IL-10 Receptor Chain-2 (IL-10R2) and Its Arginine-Containing Peptides Are Susceptible Substrates for Human Prostate Kallikrein-2 (KLK2)” (Biochemistry, 2024).)
